The term Kd denotes the equilibrium constant for the complex coming apart.

Data set [1] has as its target GST-Pab1 (S. pombe poly(A)-binding protein Pab1) (S. pombe) (UniProt P31209).
The target of data set [2] is T1, Pab1 (Schizosaccharomyces pombe, UniProt P31209 80-653).
T1 sequence: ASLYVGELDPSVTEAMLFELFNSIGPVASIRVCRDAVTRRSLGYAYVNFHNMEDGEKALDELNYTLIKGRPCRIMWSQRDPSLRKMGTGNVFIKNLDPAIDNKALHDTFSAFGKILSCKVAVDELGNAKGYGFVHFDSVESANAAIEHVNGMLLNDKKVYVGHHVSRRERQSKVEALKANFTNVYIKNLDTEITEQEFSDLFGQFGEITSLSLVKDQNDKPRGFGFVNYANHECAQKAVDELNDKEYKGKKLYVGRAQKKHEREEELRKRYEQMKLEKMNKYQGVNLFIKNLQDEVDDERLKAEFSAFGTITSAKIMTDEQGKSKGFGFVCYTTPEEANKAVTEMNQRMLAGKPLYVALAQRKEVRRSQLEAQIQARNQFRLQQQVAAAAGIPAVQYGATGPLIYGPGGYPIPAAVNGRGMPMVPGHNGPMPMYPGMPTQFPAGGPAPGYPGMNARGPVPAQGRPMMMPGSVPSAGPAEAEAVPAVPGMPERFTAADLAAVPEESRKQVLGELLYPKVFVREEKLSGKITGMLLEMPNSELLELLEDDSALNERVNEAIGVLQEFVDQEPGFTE
Put plainly: fluorescence polarization; FP: 20 mM HEPES pH 7.4, 150 mM NaCl, 22 C, 2 h, 0.2 nM RNA; switchSENSE: same buffer + 0.001% Tween-20, 25 nM Pab1, 20 C; EMSA: 20 mM PIPES pH 6.8, 10 mM KCl, 90 mM NaCl, 2 mM Mg(OAc)2, 0.1 mM TCEP, 22 C, 200 nM RNA. The note with it: protein: recombinant; tags: N-terminal GST cleaved with 3C protease; label: 5' 6-FAM. Background: In fluorescence polarisation assays a small probe gives low polarisation when free and higher when bound to something large.

Data set [3] addresses T1, Pab1. Put plainly: fluorescence polarization; one-site quadratic fit; printed label order scrambled, assigned by koff/kon; FP: 20 mM HEPES pH 7.4, 150 mM NaCl, 22 C, 2 h, 0.2 nM RNA; switchSENSE: same buffer + 0.001% Tween-20, 25 nM Pab1, 20 C; EMSA: 20 mM PIPES pH 6.8, 10 mM KCl, 90 mM NaCl, 2 mM Mg(OAc)2, 0.1 mM TCEP, 22 C, 200 nM RNA. The note with it: protein: recombinant; tags: N-terminal GST cleaved with 3C protease; label: 5' 6-FAM.

Take “S. pombe Ccr4-Not complex (WT), seven core subunits (from UniProt O74874 1-690; O74856 1-335; P87112 1-2100; P87240 1-306; O13870 1-640; Q92368 1-283)”: in data set [1], the average rate of deadenylation of 20-mer-A60 RNA by purified Ccr4-Not with Pab1 (two molecules per RNA; GST cleaved) against without Pab1 amounted to 3 fold. Regarding AAAAAAAAAAAAAAAAAAAAAA (ssRNA) [A22], the Kd with Pab1 [2] was roughly 0.5 nM. On the same count and under the same terms, as for AAAAAAAAAAAA (ssRNA) [A12], the figure is roughly 27 nM. On to AAAAAAAAAAAAAAAAAAAAAAAAAAAAAA (ssRNA) [A30], for which the Kd with Pab1 [3] came to 0.25 ± 0.03 nM.

The record behind these values is PMC6024076, “mRNA Deadenylation Is Coupled to Translation Rates by the Differential Activities of Ccr4-Not Nucleases”.
